In US20200087373A1 (UNIVERSITY OF COPENHAGEN, published 2020):
Ends that are not written are not given here. * marks the point of attachment. Palmitoyl = CCCCCCCCCCCCCCCC(=O)*; Lauroyl = CCCCCCCCCCCC(=O)*

Target: T1, human GIP receptor (human, UniProt P48546 22-466)
T1 construct: whole, on cells; also called hGIPR
T1 sequence (looked up): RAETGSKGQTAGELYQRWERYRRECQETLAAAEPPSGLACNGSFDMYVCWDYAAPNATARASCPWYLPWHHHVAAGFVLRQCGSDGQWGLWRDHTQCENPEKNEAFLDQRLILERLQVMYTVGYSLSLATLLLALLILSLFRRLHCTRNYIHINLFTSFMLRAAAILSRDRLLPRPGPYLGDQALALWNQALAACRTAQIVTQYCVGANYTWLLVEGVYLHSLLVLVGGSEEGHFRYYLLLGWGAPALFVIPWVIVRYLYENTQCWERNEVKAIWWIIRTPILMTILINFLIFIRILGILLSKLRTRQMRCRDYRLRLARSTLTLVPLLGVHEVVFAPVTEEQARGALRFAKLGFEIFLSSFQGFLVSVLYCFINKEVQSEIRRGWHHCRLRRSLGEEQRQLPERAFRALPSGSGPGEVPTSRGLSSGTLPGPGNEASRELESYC
Test: 125I-hGIP competition binding, COS-7 cells expressing hGIPR;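 further: nonspecific binding taken as radioligand bound by untransfected cells, binding buffer with or without 2% HSA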

B1: AT101 [hGIP(3-30)NH2-C12/3] (peptide)
peptide: Lauroyl-EGTFISDYSIAMDKIHQQDFVNWLLAQK-NH2
With B1 the IC50 was 9.9 nM and the “log IC50” value was -8 log M.

B2: AT143 [hGIP(3-30)NH2[M14L; H18K]-C16/18] (peptide)
peptide: EGTFISDYSIALDKIK(Palmitoyl)QQDFVNWLLAQK-NH2
modifications: N-terminus assumed
SMILES: CCCCCCCCCCCCCCCC(=O)NCCCC[C@H](NC(=O)[C@@H](NC(=O)[C@H](CCCCN)NC(=O)[C@H](CC(=O)O)NC(=O)[C@H](CC(C)C)NC(=O)[C@H](C)NC(=O)[C@@H](NC(=O)[C@H](CO)NC(=O)[C@H](Cc1ccc(O)cc1)NC(=O)[C@H](CC(=O)O)NC(=O)[C@H](CO)NC(=O)[C@@H](NC(=O)[C@H](Cc1ccccc1)NC(=O)[C@@H](NC(=O)CNC(=O)[C@@H](N)CCC(=O)O)[C@@H](C)O)[C@@H](C)CC)[C@@H](C)CC)[C@@H](C)CC)C(=O)N[C@@H](CCC(N)=O)C(=O)N[C@@H](CCC(N)=O)C(=O)N[C@@H](CC(=O)O)C(=O)N[C@@H](Cc1ccccc1)C(=O)N[C@H](C(=O)N[C@@H](CC(N)=O)C(=O)N[C@@H](Cc1c[nH]c2ccccc12)C(=O)N[C@@H](CC(C)C)C(=O)N[C@@H](CC(C)C)C(=O)N[C@@H](C)C(=O)N[C@@H](CCC(N)=O)C(=O)N[C@@H](CCCCN)C(N)=O)C(C)C
B2 showed an IC50 of 80 nM.

B3: AT131 [hGIP(3-30)NH2[D15E; H18A]-C16/16] (peptide)
peptide: EGTFISDYSIAMEK(Palmitoyl)IAQQDFVNWLLAQK-NH2
modifications: N-terminus assumed
SMILES: CCCCCCCCCCCCCCCC(=O)NCCCC[C@H](NC(=O)[C@H](CCC(=O)O)NC(=O)[C@H](CCSC)NC(=O)[C@H](C)NC(=O)[C@@H](NC(=O)[C@H](CO)NC(=O)[C@H](Cc1ccc(O)cc1)NC(=O)[C@H](CC(=O)O)NC(=O)[C@H](CO)NC(=O)[C@@H](NC(=O)[C@H](Cc1ccccc1)NC(=O)[C@@H](NC(=O)CNC(=O)[C@@H](N)CCC(=O)O)[C@@H](C)O)[C@@H](C)CC)[C@@H](C)CC)C(=O)N[C@H](C(=O)N[C@@H](C)C(=O)N[C@@H](CCC(N)=O)C(=O)N[C@@H](CCC(N)=O)C(=O)N[C@@H](CC(=O)O)C(=O)N[C@@H](Cc1ccccc1)C(=O)N[C@H](C(=O)N[C@@H](CC(N)=O)C(=O)N[C@@H](Cc1c[nH]c2ccccc12)C(=O)N[C@@H](CC(C)C)C(=O)N[C@@H](CC(C)C)C(=O)N[C@@H](C)C(=O)N[C@@H](CCC(N)=O)C(=O)N[C@@H](CCCCN)C(N)=O)C(C)C)[C@@H](C)CC
B3 was tested, and the IC50 was 6510 nM and the “log IC50” value was -5.2 log M.

B4: AT153 [hGIP(3-30)NH2[H18R; K30R]-C12/16] (peptide)
peptide: EGTFISDYSIAMDK(Lauroyl)IRQQDFVNWLLAQR-NH2
modifications: N-terminus assumed
SMILES: CCCCCCCCCCCC(=O)NCCCC[C@H](NC(=O)[C@H](CC(=O)O)NC(=O)[C@H](CCSC)NC(=O)[C@H](C)NC(=O)[C@@H](NC(=O)[C@H](CO)NC(=O)[C@H](Cc1ccc(O)cc1)NC(=O)[C@H](CC(=O)O)NC(=O)[C@H](CO)NC(=O)[C@@H](NC(=O)[C@H](Cc1ccccc1)NC(=O)[C@@H](NC(=O)CNC(=O)[C@@H](N)CCC(=O)O)[C@@H](C)O)[C@@H](C)CC)[C@@H](C)CC)C(=O)N[C@H](C(=O)N[C@@H](CCCNC(=N)N)C(=O)N[C@@H](CCC(N)=O)C(=O)N[C@@H](CCC(N)=O)C(=O)N[C@@H](CC(=O)O)C(=O)N[C@@H](Cc1ccccc1)C(=O)N[C@H](C(=O)N[C@@H](CC(N)=O)C(=O)N[C@@H](Cc1c[nH]c2ccccc12)C(=O)N[C@@H](CC(C)C)C(=O)N[C@@H](CC(C)C)C(=O)N[C@@H](C)C(=O)N[C@@H](CCC(N)=O)C(=O)N[C@@H](CCCNC(=N)N)C(N)=O)C(C)C)[C@@H](C)CC
In the case of B4, the IC50 is reported as 316 nM and the “log IC50” value is reported as -7 log M.

B5: AT130 [hGIP(3-30)NH2[D15E; H18A]-C12/30] (peptide)
peptide: EGTFISDYSIAMEKIAQQDFVNWLLAQK(C12 fatty acyl)-NH2
For B5, the IC50 was 1210 nM and the “log IC50” value was -5.9 log M.

B6: AT107 [hGIP(3-30)NH2[T5W; D15E; H18A]-C16/16] (peptide)
peptide: EGWFISDYSIAMEK(Palmitoyl)IAQQDFVNWLLAQK-NH2
modifications: N-terminus assumed
SMILES: CCCCCCCCCCCCCCCC(=O)NCCCC[C@H](NC(=O)[C@H](CCC(=O)O)NC(=O)[C@H](CCSC)NC(=O)[C@H](C)NC(=O)[C@@H](NC(=O)[C@H](CO)NC(=O)[C@H](Cc1ccc(O)cc1)NC(=O)[C@H](CC(=O)O)NC(=O)[C@H](CO)NC(=O)[C@@H](NC(=O)[C@H](Cc1ccccc1)NC(=O)[C@H](Cc1c[nH]c2ccccc12)NC(=O)CNC(=O)[C@@H](N)CCC(=O)O)[C@@H](C)CC)[C@@H](C)CC)C(=O)N[C@H](C(=O)N[C@@H](C)C(=O)N[C@@H](CCC(N)=O)C(=O)N[C@@H](CCC(N)=O)C(=O)N[C@@H](CC(=O)O)C(=O)N[C@@H](Cc1ccccc1)C(=O)N[C@H](C(=O)N[C@@H](CC(N)=O)C(=O)N[C@@H](Cc1c[nH]c2ccccc12)C(=O)N[C@@H](CC(C)C)C(=O)N[C@@H](CC(C)C)C(=O)N[C@@H](C)C(=O)N[C@@H](CCC(N)=O)C(=O)N[C@@H](CCCCN)C(N)=O)C(C)C)[C@@H](C)CC
With B6 the IC50 was 5220 nM and the “log IC50” value was -5.3 log M.

B7: AT144 [hGIP(3-30)NH2[K16R; H18K; K30R]-C16/18] (peptide)
peptide: EGTFISDYSIAMDRIK(Palmitoyl)QQDFVNWLLAQR-NH2
modifications: N-terminus assumed
SMILES: CCCCCCCCCCCCCCCC(=O)NCCCC[C@H](NC(=O)[C@@H](NC(=O)[C@H](CCCNC(=N)N)NC(=O)[C@H](CC(=O)O)NC(=O)[C@H](CCSC)NC(=O)[C@H](C)NC(=O)[C@@H](NC(=O)[C@H](CO)NC(=O)[C@H](Cc1ccc(O)cc1)NC(=O)[C@H](CC(=O)O)NC(=O)[C@H](CO)NC(=O)[C@@H](NC(=O)[C@H](Cc1ccccc1)NC(=O)[C@@H](NC(=O)CNC(=O)[C@@H](N)CCC(=O)O)[C@@H](C)O)[C@@H](C)CC)[C@@H](C)CC)[C@@H](C)CC)C(=O)N[C@@H](CCC(N)=O)C(=O)N[C@@H](CCC(N)=O)C(=O)N[C@@H](CC(=O)O)C(=O)N[C@@H](Cc1ccccc1)C(=O)N[C@H](C(=O)N[C@@H](CC(N)=O)C(=O)N[C@@H](Cc1c[nH]c2ccccc12)C(=O)N[C@@H](CC(C)C)C(=O)N[C@@H](CC(C)C)C(=O)N[C@@H](C)C(=O)N[C@@H](CCC(N)=O)C(=O)N[C@@H](CCCNC(=N)N)C(N)=O)C(C)C
In the case of B7, the IC50 is reported as 297 nM and the “log IC50” value is reported as -6.53 log M.

B8: AT145 [hGIP(5-30)NH2[H18K]-C16/18] (peptide)
peptide: TFISDYSIAMDKIK(Palmitoyl)QQDFVNWLLAQK-NH2
modifications: N-terminus assumed
SMILES: CCCCCCCCCCCCCCCC(=O)NCCCC[C@H](NC(=O)[C@@H](NC(=O)[C@H](CCCCN)NC(=O)[C@H](CC(=O)O)NC(=O)[C@H](CCSC)NC(=O)[C@H](C)NC(=O)[C@@H](NC(=O)[C@H](CO)NC(=O)[C@H](Cc1ccc(O)cc1)NC(=O)[C@H](CC(=O)O)NC(=O)[C@H](CO)NC(=O)[C@@H](NC(=O)[C@H](Cc1ccccc1)NC(=O)[C@@H](N)[C@@H](C)O)[C@@H](C)CC)[C@@H](C)CC)[C@@H](C)CC)C(=O)N[C@@H](CCC(N)=O)C(=O)N[C@@H](CCC(N)=O)C(=O)N[C@@H](CC(=O)O)C(=O)N[C@@H](Cc1ccccc1)C(=O)N[C@H](C(=O)N[C@@H](CC(N)=O)C(=O)N[C@@H](Cc1c[nH]c2ccccc12)C(=O)N[C@@H](CC(C)C)C(=O)N[C@@H](CC(C)C)C(=O)N[C@@H](C)C(=O)N[C@@H](CCC(N)=O)C(=O)N[C@@H](CCCCN)C(N)=O)C(C)C
With B8 the IC50 was 155 nM and the “log IC50” value was -6.8 log M.
